Experiments:
[1] = target: T1, recombinant human VCAM-1 domain 1-7/Fc chimera (R&D, 862-VC) (human, UniProt P19320 25-698); assay: BIACORE (SPR), recombinant VCAM1/Fc immobilised on sensor chip CM5, antibody as analyte, 1:1 binding model
T1 construct: domain: D1-D7; Bought; also called VD7; hVCAM-Fc-chimera; not shown: Fc of the bought chimera
T1 sequence (looked up): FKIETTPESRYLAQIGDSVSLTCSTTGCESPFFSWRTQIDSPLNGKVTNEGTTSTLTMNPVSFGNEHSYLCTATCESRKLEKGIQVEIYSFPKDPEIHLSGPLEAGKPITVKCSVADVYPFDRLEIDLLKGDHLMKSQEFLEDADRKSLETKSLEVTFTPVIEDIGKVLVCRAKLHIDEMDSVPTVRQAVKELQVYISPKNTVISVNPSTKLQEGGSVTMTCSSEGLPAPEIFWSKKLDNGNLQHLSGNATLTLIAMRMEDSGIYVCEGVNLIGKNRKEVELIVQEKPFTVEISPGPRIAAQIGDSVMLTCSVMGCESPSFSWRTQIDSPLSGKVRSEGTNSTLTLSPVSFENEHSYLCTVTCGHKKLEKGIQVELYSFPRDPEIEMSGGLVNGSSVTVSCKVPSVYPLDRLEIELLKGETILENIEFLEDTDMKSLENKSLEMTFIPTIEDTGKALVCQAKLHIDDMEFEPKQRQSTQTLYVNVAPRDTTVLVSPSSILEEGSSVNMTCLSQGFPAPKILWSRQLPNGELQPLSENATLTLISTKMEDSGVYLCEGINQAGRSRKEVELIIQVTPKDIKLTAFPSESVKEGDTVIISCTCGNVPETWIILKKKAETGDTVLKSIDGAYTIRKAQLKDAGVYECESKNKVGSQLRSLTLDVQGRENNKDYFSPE
Description: (§1) Journal of Bioscience and Bioengineering Vol. 100, No. 3, 311-317, 2005).
(§2) For ligand immobilization to the sensor chip CM5, the chip should be first activated with a mixture of N-hydroxysuccinimide (NHS) and […] (Amine Coupling Kit, BR-1000-50) to prepare a NHS-ester-activated chip surface being highly reactive to amino group. 1 mg/ml of ligand to be immobilized was diluted in 97 μl of each sodium acetate solution (vary within the pH range from 4.0 to 5.5) at a dilution ratio of 3/100, and then applied at a flow rate of 10 μl/min for about 3 min (as a negative control, the ligand was diluted using a running buffer, HBS-EP buffer (BIACORE AB, Sweden) in the same manner). In order to immobilize the ligand at a predetermined value target RU (resonance unit), serial injection was carried out automatically, until reaching target RU. […] The final RU was determined by an immobilization report which provides a difference in RU values before and after injection of ethanolamine.
(§3) A flow cell 2-flow cell 1 mode provided by BIACORE instrument was employed in this experiment in order to remove non-specific binding. […] Through this procedure, an association/dissociation curve of the corresponding antigen and antibody was obtained, and an association/dissociation constant KD was calculated by BIAevaluation program (BIACORE AB, Sweden), as shown in FIG. 3.

[2] = target: T1, recombinant human VCAM-1 domain 1-7/Fc …; assay: BIACORE (SPR), VCAM1/Fc immobilised on CM5 chip, antibody as analyte, 1:1 binding model
Description: as §1, §2, §3

- koff [1]: 0.00176 s⁻¹
- kon [1]: 279000 M⁻¹ s⁻¹
- Kd [2]: ~6.3 nM
B1: 7HT antibody (VCAM-1 antibody, VCAM-1 Ab) (antibody, V domains shown)
VH: EVQLVQSGGDLVKPGESLRLSCAASGFTFNDAWMTWVRQPPGKGLEWVGRIKSTTDGGTTNYAAPVEGRFTISRDDSKNTLYLEMNSLRAEDTAVYYCARIPLFNHDSGGYHGAFDIWGQGTMVTVSS
VL: DIQMTQSPSSLAVSLGERATINCKSSQSVLYSSNNKNYLAWYQQKPGQPPKLLIYWASTRESGVPDRFSGSGSGTDFTLTISSLQPEDFASYYCQESYSAPYTFGQGTKVEIKR
notes: Human antibody, full IgG; also called VCAM-1 Ab (7HT); 7HT Ab

— patent US20120276091A1 (HANWHA CHEMICAL, published 2012)
